Experimental data published in PMC11794430.

Target: HA-tagged Mincle (macrophage-inducible C-type lectin, CLEC4E) (UniProt Q9ULY5)
Experiment: MST

Sequence of UniProt Q9ULY5 (Q9ULY5 whole entry): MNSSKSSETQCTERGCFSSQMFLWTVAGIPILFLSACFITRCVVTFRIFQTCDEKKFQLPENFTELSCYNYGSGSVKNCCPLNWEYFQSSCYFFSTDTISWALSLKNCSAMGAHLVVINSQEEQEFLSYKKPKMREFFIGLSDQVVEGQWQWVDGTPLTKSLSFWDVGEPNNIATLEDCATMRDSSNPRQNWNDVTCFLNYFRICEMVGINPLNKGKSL

Substance | Kd
Haptoglobin purified from healthy controls (from UniProt P00738 162-406; P00738 19-160) (natural protein) | 22.9 µM
Fucosylated haptoglobin purified from sepsis patients (from UniProt P00738 162-406; P00738 19-160) (natural protein) | 5.7 µM
